Reference: the DeepSol protein solubility set

Experiment: soluble on expression in E. coli; label from the status in PepcDB or PDB records

Sequence | soluble on expression in E. coli
MLKTILSIAGKPGLYKLISQGKNMLIVETVDAAKKRVPAYAHDKVISLADIAMYTDAEEVPLSEVLEAVKKKENGAVASINYKKASADELHAYFAEVLPNYDRDRVHNGDIKKLISWYNILVNNGITEFVEAPADSADKVEEAVAELEHHHHHH | soluble
MLKTPSDAAVAGCLSLLLEVSGNPKAGNVDREHDFDDLKFEHFLASAAGAFPAFLEVAEKRIIGEGVLRAVKESMRWHRAENVHFGAFLLLVPLISSWDAG | not soluble
MLLEIKDLVYKASDRIILDHISLKVDKGESIAIIGPSGSGKSTFQKQICNLFSPTSGELYFKGKPYNDYDPEELRQRISYLMQQSDLFGETIEDNMIFPSLARNDKFDRKRAKQLIKDVGLGHYQLSSEVENMSGGERQRIAIARQLMYTPDILLLDESTSALDVNNKEKIENIIFKLADQGVAIMWITHSDDQSMRHFQKRITIVDGQISNTEELNQHE | soluble
MLLLRITMLEGRSTEQKAELARALSAAAAAAFDVPLAEVRLIIQEVPPTHWTVGGISMAELRQQASTSTQGQ | soluble
MLLMMVVGLTAGVLAGCANPKDTTEEFLTAIQKGDIEKARTFVESDKEFNKLNEKTDDAEAKAMLSAITKNFKFEKLEEVSKKDDKAEVKVKITSADLSVAVTKAVGEVMPMAFASAFSEDKEQSEKAIEKTMTSTIIKNLTDKDAAMATREVTLNLKKDKDGDYKIVADDNLKEVLFANAKSLEKMFGGK | not soluble
MLLNLDVRMQLKELAQKEFKEPVSIKLFSQAIGCESCQTAEELLKETVEVIGEAVGQDKIKLDIYSPFTHKEETEKYGVDRVPTIVIEGDKDYGIRYIGLPAGLEFTTLINGIFHVSQRKPQLSEKTLELLQVVDIPIEIWVFVTTSCGYCPSAAVMAWDFALANDYITSKVIDASENQDLAEQFQVVGVPKIVINKGVAEFVGAQPENAFLGYIMAVYEKLKREKEQA | soluble
MLLQELHIYSEQSSSNTKVSIKNKDGEILFEYCYSNDAIPTFNPIELLRLSLEGDIGVLFQMKTSISQKSKKDDFRISCEQSRSETSRMNQ | not soluble
MLLSLYIPPGRPIPDVLNLLRQEYSIAQNIKLKRTRDAVTSAIQSAIDRLTQIPKVPDNGLVIFCGENFETEESKCFVFSPPEKVTIFFYRTDKYFHTEFLEDMIEENDVFGLIIVERDYATIGILKGTRIEVLDEFEGFVPGKHMMGGQSQRRIDRIIEEMYANFLKEVGEKANSYLLPYLESGKLKGILLGGPGYAKKDFYDGDYLDYRLKKLVLLPLIDIPDQGDAGLKELVMKAQDILKNQKYVQVQNLLEELKYHIAKDDGLVVYGIEEIRKALHMGAVDSLVIYDEPNSELEKLSQEAENYGTKVYVVGDELPDAEWVKKTFGGAIGKLRYKIY | soluble
MLLTNKGDVMLGLKQVHHIAIIATDYAVSKAFYCDILGFTLQSEVYREARDSWKGDLALNGQYVIELFSFPFPPERPSRPEACGLRHLAFSVDDIDAAVAHLESHNVKCEAIRVDPYTQKRFTFFNDPDGLPLELYEQ | not soluble
MLLVMGAHESGLDRARLQSLYEQLVATNEDETEKLAASGHSTGLVASEWARFLAPFDFGYRLVALQRESKRVAAALTRALYGIDTSGASEHDPLWAVEHRVLPVPVTDRLLFCEMRFLLVLALSRRLWMRLERVDPLGQENPFPRDAEIIERVEDLARQSRERLALLAERSPEALNAGKQEAHDCIEDLRTKETRAAEQVAGFAQALGDAALLEKVWHALVDEIAQNRQLNHALLQTLCQWVLMLIGADTEVPSSASCSDE | soluble
MLMIKGIIFDMDGVLFDTEPFYLRRREDFFKTKGIPIDHLNSKDFIGGNLQELWKELLGKNRDDAIVKAITTDYDAYKQAHKPPYQKLLITEVNSCLEQLEKQGIKLAVASNSKRQDVLLALETTQIKDYFEIILAREDVSRGKPYPDIYNKAVQKLGLQKKQLLVVEDSQKGIAAAKAANLTVFAITDYRYGIDQSQADHKIDHLGQLCVKIGCFGS | not soluble
MLMPRRMKYRKQQRGRLKGATKGGDYVAFGDYGLVALEPAWITAQQIEAARVAMVRHFRRGGKIFIRIFPDKPYTKKPLEVRMGKGKGNVEGYVAVVKPGRVMFEVAGVTEEQAMEALRIAGHKLPIKTKIVRRDAYDEAQ | soluble
MLNIDNIQSLIDNGEGYNVEFKVRVPSKVRELTEEICAFANADGGYLLIGVDDNGQVVDTNLENDKRSAIQGSISEISPTLHCELYSVNLGDKTVWVIDVPSSKDKPYIFSGSIYVREGANSQKLRTAEEIRSFFQECNKIYFDHIPCHWFNIYTDADAQMIKDFRTEAKLSPSTPRQTNILEHHHHHH | soluble
MLNIQNYSASPHPGIVAERPQTPSASEHVETAVVPSTTEHRGTDIISLSQAATKIHQAQQTLQSTPPISEENNDERTLARQQLTSSLNALAKSGVSLSAEQNENLRSAFSAPTSALFSASPMAQPRTTISDAEIWDMVSQNISAIGDSYLGVYENVVAVYTDFYQAFSDILSKMGGWLLPGKDGNTVKLDVTSLKNDLNSLVNKYNQINSNTVLFPAQSGSGVKVATEAEARQWLSELNLPNSCLKSYGSGYVVTVDLTPLQKMVQDIDGLGAPGKDSKLEMDNAKYQAWQSGFKAQEENMKTTLQTLTQKYSNANSLYDNLVKVLSSTISSSLETAKSFLQGLEHHHHHH | soluble
MLNKEIKGALIVSCQALADEPLHSSFIMSKMALAAKQGGAKGIRANSVVDIRAIRKEVDLPIIGIIKRDYPDAEVYITATMREVDELMAVQPEIIALDATHSKRPNGETLATFFKRIKEKYPNQEWMADCSTLEEMIEAAELGFDYIGTTLVGYTPQSENQRIEQNDFELLREAKKHFTTPIIAEGMIDTPAKVQRVLELGTYSVVVGSVITRPQKITEKFVEATKIKQNQA | not soluble
MLNLFRNRKRNGAGPTIKKAQKMPELDDFLSNQDYEGAISLLNHKLKAGNLDREEEDSLQLWLAHCYYRLRNYEEAANVYTFLMNKDDAPAELGVYLACCKFYLKQYIEAKSIAEKCPKTPLCIRLMMNVSLRLNDEKRILTFHSSLGDTLEDRLSLAGVNYSRMHYQDAIEVYTSVLQTSPNLIGLNVNMALCYAKMDYPHVAYNLIKNYLRNFPNSPFAKNLLLSVLYRTITSKTTVDEKSELARNIDQEGLTMVSDMEALLKQKLYPEIEYICKHNLVLFKNCETALQVLPSLMKHIPEARVNLILYHLNKNNVKDAISLCKDFDPVTPYEFLVKALTFLRHGQETNSREHLKIAENFFQMVGESGLVQDTIAGRQSSAAYLFLSFKFDDVITYLKSIEAYFTNNDDFLLNLAQAYLMYKNYVAAEKLFIRVSGPERDKILYKSMLARCYVRNKKPQSAWDMMLKTNNPSDRMSLLKVIAQDCYIANEFYYASKAFHEIEISDPTTENWSGKRGACAGLFRQLANHKTDPILISQMREVVHLVAMKPHSNCEFLLKVVRNWAETHNVNIIN | not soluble
MLNQPRLDEIMRLLAQQQRVKASDLAQLLFVSEETIRRDFKHLEEEGRLRRIHGGAILPRSSEELPLQERSRLKPRAKAGIATCAAQLVTEGMAIFLDTGTSTLALAQQLTRFSQLKIITNSLDIAQLISHQSDNQVLVAPGDVRRTDNALIGPHTLEFARQFHYDIAFMGIGGIDLDLGLMDYQEPEAMLRRTLVRHCARSVVLADDGKFGHRTFINTLPFAAITTLVTNRPLSDEFATRLEKDHVDTLYP | not soluble
MLNVGDSVQIAGCSTKKRLLETSSGCDSFDTLIGGALVNSSIVLIDEYRSRCYGSYLIRSFLAEGLHHGHRCFIADPTEDPKEINLIPSRRTSTDMQNQEIPNSLPAENENSMKIAWRYGNVKQVSSSLGPLSNENQYDFTKHVENPNVDVYAEKVFTLKGIYETLCQIVKENEAHTKSGGRGGPKKNLLRVVLKNIDMEICEDYKFLGRFLCCLRSLARSSYMIVYITANSFRVPKPTWRILESAADTHIQLMPFDENEKKMFKHLGTAHGYFHLKSLPRLMSVGTHTPPILDLIFEASSRKGFQIRVMHLPPAFDEPAPGHQNTPSCQNIDF | soluble
MLPKSSLKETQQALANAIRLGNADPLNGYAASRLAVYTRLVRNNAFGFIDRCFVEAPLHIEPEYWKNAKENFVQNGNAHSPYFQDIAGEFLLFCQEKEIFDTNILALMDFENTQLLAEVSLAKVPEKFEWNRHSVMQLSGAAYLKSYDVDFLSSDFKQFDDTPIQAIIWRDSDFRIQQQILSELDYWLLSYLQEQPNSLENVLSALNTMVEDSTSIIPLLEQVWMKWVTSEVIYPEQR | not soluble
MLPLIRKMKPTDAAALTIINKEQLGYEVPVDVTCKQIEKLLLASDREFLYVYEETKTGKILGYVHAQLYETIYSQTLLNVLGLAVAKEAEGRGIGKQLMTKLETEAKKCNLSAIRLNSGEQRTAAHQFYEHIGYVSDKKQKRFIKYLDT | not soluble
MLPRLGGFLAGFSSTISSFLPKTTASTLFTHQSSQFSTSFPAWRNNFLQFIHYRNGPPKRRARSKDKSAISGYSHYKGIVLKTVIRHPKKPNSGNRKCAIVRLSTGAEVCAYIPNVGHNLQEHSQVLVKGGRRRDLISVKANIVRGKYDCAPAGGRK | not soluble
MLQKDPCLDDILENSEKLENNSNKKNIDSIDTIKLSDIIEKMIEINSIVRIEKIFEEKIVSQNPVVNVVVNDGSARGLLSLWSEQISLLNELNEGDAILIENAHAPKKYKDRIHLALSKSGKISKIESDLPTIDELLKKSSAQRNDFSRKSISELKEGIGAELRGLIVAIHSKEPYFPVCDKCNKKMTLKKGYAVCKCGNKVDEEDENLKWLFLCTCTLDDGSGTIRVTLNNNTNYLDLEELKKIIIDDEEILDVLNNKLLGLDILTSGFTIYDEYLKDTAFRCNNWNKIDIMEEFNKKLKGLEHHHHHH | soluble
MLRFDHLVHAVHGTPEEAAKQMQELGFHTVLGGEHTNWGTWNSLSYFDLSYIEFLAVQYEEKAKEAENPLVQETVVKLQNGEGMLQIAIRTDAIEELAVNFNKYGLHTIGPFEGKRMRKDGRLLEWKMLFVKQEENGPKLPFFIQWNETDEERRNDLRNSGTITEHKNKVQQIETIHYAVKNVRETVRKWKEVMELSTSSVVKIEKWNAECQSVVFGDIHVQFCEPIGEGLVLEHLNKNGENPFAVEFKGGNKREHEVLGSLYIY | not soluble
MLRIGLTGGIGAGKSLLSTTFSQCGGIVVDGDVLAREVVQPGTEGLASLVDAFGRDILLADGALDRQALAAKAFRDDESRGVLNGIVHPLVARRRSEIIAAVSGDAVVVEDIPLLVESGMAPLFPLVVVVHADVELRVRRLVEQRGMAEADARARIAAQASDQQRRAVADVWLDNSGSPEDLVRRARDVWNTRVQPFAHNLAQRQIARAPARLVPADPSWPDQARRIVNRLKIACGHKALRVDHIGSTAVSGFPDFLAKDVIDIQVTVESLDVADELAEPLLAAGYPRLEHITQDTEKTDARSTVGRYDHTDSAALWHKRVHASADPGRPTNVHLRVHGWPNQQFALLFVDWLAANPGAREDYLTVKCDADRRADGELARYVTAKEPWFLDAYQRAWEWADAVHWRP | soluble
MLRQIGEFYHQGEKDDTSRVWMTCWHHGGRILASCGDDKAVRVWSLVGEPDSKMRLECRTTLDDSHTRAVRSVAFSNDGKCLVSASFDASVVVYQQEDGEFAEVNKLEGHESEVKCAVFSKSDEFLATCSRDKSVWFWQQDEDEDFSVSSILQPHTQDVKQVAWHPTEDLLVSCSYDSSIRFYRFDGEDWVTQQKIDGCHVGTVWSIAFDTEGHRLVTVGEDHCIQLFVRENIGSKSADQDTWKSVARYDVENTRWPLYSVAWNSTNDVIATGGGDCKIRLFKISSTPESPVIEHLGVVGRHELDVNHVAWNPNPKFSNLLTSASDDGTIRLWELEI | not soluble
